# Results from article PMC10284912, “Molecular choreography of primer synthesis by the eukaryotic Pol α-primase” (Nature Communications, 2023).
# T1: S. cerevisiae DNA polymerase catalytic subunit Pol1 (S. cerevisiae, UniProt P13382 1-1468)
# T1 construct: DNA polymerase alpha catalytic subunit Pol1, S. cerevisiae, aa 1-1468 (Pol1-NTD aa 1-348, Pol1-core aa 349-1259, Pol1-CTD aa 1260-1468); intact complex without truncations; also called DNA polymerase 1; p180
# T1 sequence (looked up): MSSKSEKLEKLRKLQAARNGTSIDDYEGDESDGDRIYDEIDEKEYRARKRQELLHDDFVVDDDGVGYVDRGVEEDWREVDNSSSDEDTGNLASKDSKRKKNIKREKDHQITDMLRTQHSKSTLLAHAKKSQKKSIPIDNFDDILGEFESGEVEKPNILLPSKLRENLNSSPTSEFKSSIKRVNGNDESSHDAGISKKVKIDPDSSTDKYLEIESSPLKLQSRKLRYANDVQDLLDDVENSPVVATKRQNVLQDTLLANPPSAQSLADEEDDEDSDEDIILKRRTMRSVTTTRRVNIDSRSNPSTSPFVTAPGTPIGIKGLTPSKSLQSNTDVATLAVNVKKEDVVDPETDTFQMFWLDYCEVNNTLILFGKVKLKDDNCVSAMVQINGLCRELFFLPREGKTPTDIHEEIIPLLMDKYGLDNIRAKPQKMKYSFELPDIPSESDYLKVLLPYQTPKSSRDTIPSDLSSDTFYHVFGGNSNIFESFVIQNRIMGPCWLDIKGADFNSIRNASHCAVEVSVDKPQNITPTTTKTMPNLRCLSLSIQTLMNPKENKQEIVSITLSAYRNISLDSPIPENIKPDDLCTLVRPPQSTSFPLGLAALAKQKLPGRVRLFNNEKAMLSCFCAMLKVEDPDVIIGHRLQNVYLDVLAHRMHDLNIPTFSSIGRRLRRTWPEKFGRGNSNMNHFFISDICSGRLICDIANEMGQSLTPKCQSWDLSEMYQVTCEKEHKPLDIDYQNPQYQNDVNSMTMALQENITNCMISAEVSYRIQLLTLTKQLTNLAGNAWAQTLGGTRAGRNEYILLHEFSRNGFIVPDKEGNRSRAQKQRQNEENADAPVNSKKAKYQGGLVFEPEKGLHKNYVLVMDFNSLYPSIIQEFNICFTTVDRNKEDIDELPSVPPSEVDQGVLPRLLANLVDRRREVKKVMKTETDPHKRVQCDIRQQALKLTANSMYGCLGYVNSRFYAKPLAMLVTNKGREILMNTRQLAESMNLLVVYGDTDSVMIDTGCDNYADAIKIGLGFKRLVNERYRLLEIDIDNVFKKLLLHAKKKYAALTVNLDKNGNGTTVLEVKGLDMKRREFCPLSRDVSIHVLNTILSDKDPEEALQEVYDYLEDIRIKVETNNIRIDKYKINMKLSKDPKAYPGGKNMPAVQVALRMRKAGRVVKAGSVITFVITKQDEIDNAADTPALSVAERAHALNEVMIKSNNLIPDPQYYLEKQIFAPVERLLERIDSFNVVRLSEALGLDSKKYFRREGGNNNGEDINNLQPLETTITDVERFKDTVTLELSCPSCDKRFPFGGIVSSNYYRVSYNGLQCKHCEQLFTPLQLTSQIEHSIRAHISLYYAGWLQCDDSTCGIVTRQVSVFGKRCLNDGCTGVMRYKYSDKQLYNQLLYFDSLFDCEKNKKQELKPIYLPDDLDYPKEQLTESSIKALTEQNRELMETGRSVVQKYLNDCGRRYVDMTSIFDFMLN
# B1: S. cerevisiae regulatory subunit primase 2 (Pri2) (natural protein, UniProt P20457 1-528, looked up)
# chain: MFRQSKRRIASRKNFSSYDDIVKSELDVGNTNAANQIILSSSSSEEEKKLYARLYESKLSFYDLPPQGEITLEQFEIWAIDRLKILLEIESCLSRNKSIKEIETIIKPQFQKLLPFNTESLEDRKKDYYSHFILRLCFCRSKELREKFVRAETFLFKIRFNMLTSTDQTKFVQSLDLPLLQFISNEEKAELSHQLYQTVSASLQFQLNLNEEHQRKQYFQQEKFIKLPFENVIELVGNRLVFLKDGYAYLPQFQQLNLLSNEFASKLNQELIKTYQYLPRLNEDDRLLPILNHLSSGYTIADFNQQKANQFSENVDDEINAQSVWSEEISSNYPLCIKNLMEGLKKNHHLRYYGRQQLSLFLKGIGLSADEALKFWSEAFTRNGNMTMEKFNKEYRYSFRHNYGLEGNRINYKPWDCHTILSKPRPGRGDYHGCPFRDWSHERLSAELRSMKLTQAQIISVLDSCQKGEYTIACTKVFEMTHNSASADLEIGEQTHIAHPNLYFERSRQLQKKQQKLEKEKLFNNGNH
# notes: DNA primase large (regulatory) subunit Pri2, S. cerevisiae (Pri2-NTD, 20-residue linker, Pri2-CTD with a 4Fe-4S cluster); intact complex without truncations; also called p58; PriL
# Legend:
# [1] = target: T1, S. cerevisiae DNA polymerase catalytic …; experiment: cryo-EM structure; purified yeast Pol α-primase alone (apo state, conformers I and II, 3.7 and 3.8 Å); ~1 mg/ml; 50 mM HEPES pH 7.5, 50 mM KGlu, 200 mM KAcetate, 1 mM DTT, 4 mM MgCl2; details: both partners purified
# [2] = target: B1; experiment: as above; details: both partners purified
Binder,binding result [1],binding result [2]
"S. cerevisiae polymerase accessory subunit Pol12 (natural protein, UniProt P38121 1-705, looked up, intact complex without truncations; also called p70; B-subunit) MSGSIDVITHFGPDADKPEIITALENLTKLHALSVEDLYIKWEQFSNQRRQTHTDLTSKNIDEFKQFLQLQMEKRANQISSSSKVNTSTKKPVIKKSLNSSPLFGLSIPKTPTLKKRKLHGPFSLSDSKQTYNVGSEAETNEKGNSSLKLEFTPGMAEDAVGDSAPLSHAKSSDAKTPGSSTFQTPTTNTPTTSRQNVPAGEILDSLNPENIEISSGNPNVGLLSTEEPSYNQVKVEPFYDAKKYKFRTMRQNLQEASDVLDDQIESFTKIIQNHYKLSPNDFADPTIQSQSEIYAVGRIVPDSPTYDKFLNPESLSLETSRMGGVGRRVRLDLSQVNELSFFLGQIVAFKGKNANGDYFTVNSILPLPYPNSPVSTSQELQEFQANLEGSSLKVIVTCGPYFANDNFSLELLQEFIDSINNEVKPHVLIMFGPFIDITHPLIASGKLPNFPQFKTQPKTLDELFLKLFTPILKTISPHIQTVLIPSTKDAISNHAAYPQASLIRKALQLPKRNFKCMANPSSFQINEIYFGCSNVDTFKDLKEVIKGGTTSSRYRLDRVSEHILQQRRYYPIFPGSIRTRIKPKDVSTKKETNDMESKEEKVYEHISGADLDVSYLGLTEFVGGFSPDIMIIPSELQHFARVVQNVVVINPGRFIRATGNRGSYAQITVQCPDLEDGKLTLVEGEEPVYLHNVWKRARVDLIAS",binds,
B1,binds,
"S. cerevisiae catalytic primase 1 (Pri1) (natural protein, UniProt P10363 1-409, looked up, DNA primase small (catalytic) subunit Pri1, S. cerevisiae; intact complex without truncations; also called p49; PriS) MTNSVKTNGPSSSDMEYYYKSLYPFKHIFNWLNHSPKPSRDMINREFAMAFRSGAYKRYNSFNSVQDFKAQIEKANPDRFEIGAIYNKPPRERDTLLKSELKALEKELVFDIDMDDYDAFRTCCSGAQVCSKCWKFISLAMKITNTALREDFGYKDFIWVFSGRRGAHCWVSDKRARALTDVQRRNVLDYVNVIRDRNTDKRLALKRPYHPHLARSLEQLKPFFVSIMLEEQNPWEDDQHAIQTLLPALYDKQLIDSLKKYWLDNPRRSSKEKWNDIDQIATSLFKGPKQDSHIIKLRECKEDLVLMTLYPKLDVEVTKQTIHLLKAPFCIHPATGNVCVPIDESFAPEKAPKLIDLQTEMEKNNDVSLTALQPFINQFQAYVSSLLKNELGSVKREREDDDEPASLDF",binds,binds
